According to patent publication US20240309103A1 (Regeneron, published 2024):

Assays:
mfNPR1-mFc:hANP complex [1] = target: T1, mfNPR1-mFc:hANP complex (monkey; human, UniProt P01160 124-151); assay: SPR, mAb captured, 37C
T1 construct: also called monkey NPR1 complexed to ANP
Procedure: (§1) Equilibrium dissociation constant (KD) for different NPR1 reagents binding to purified anti-NPR1 monoclonal antibodies (mAbs) were determined using a real-time surface plasmon resonance based Biacore 4000 biosensor. All binding studies were performed in 10 mM HEPES, 150 mM NaCl, 3 mM EDTA, and 0.05% v/v Surfactant Tween-20, pH 7.4 (HBS-ET) running buffer at 25° C. and 37° C. The Biacore CM5 sensor chip surface was first derivatized by amine coupling with either mouse anti-human Fc specific mAb (GE Healthcare, #BR100839) or goat anti-human Fcy specific polyclonal antibody (Jackson ImmunoResearch Laboratories, #BR-1008-39) to capture anti-NPR1 mAbs.

mfNPR1-mFc [2] = target: T2, mfNPR1-mFc (monkey); assay: SPR, mAb captured, 37C
T2 construct: also called dimeric monkey NPR1
T2 chain: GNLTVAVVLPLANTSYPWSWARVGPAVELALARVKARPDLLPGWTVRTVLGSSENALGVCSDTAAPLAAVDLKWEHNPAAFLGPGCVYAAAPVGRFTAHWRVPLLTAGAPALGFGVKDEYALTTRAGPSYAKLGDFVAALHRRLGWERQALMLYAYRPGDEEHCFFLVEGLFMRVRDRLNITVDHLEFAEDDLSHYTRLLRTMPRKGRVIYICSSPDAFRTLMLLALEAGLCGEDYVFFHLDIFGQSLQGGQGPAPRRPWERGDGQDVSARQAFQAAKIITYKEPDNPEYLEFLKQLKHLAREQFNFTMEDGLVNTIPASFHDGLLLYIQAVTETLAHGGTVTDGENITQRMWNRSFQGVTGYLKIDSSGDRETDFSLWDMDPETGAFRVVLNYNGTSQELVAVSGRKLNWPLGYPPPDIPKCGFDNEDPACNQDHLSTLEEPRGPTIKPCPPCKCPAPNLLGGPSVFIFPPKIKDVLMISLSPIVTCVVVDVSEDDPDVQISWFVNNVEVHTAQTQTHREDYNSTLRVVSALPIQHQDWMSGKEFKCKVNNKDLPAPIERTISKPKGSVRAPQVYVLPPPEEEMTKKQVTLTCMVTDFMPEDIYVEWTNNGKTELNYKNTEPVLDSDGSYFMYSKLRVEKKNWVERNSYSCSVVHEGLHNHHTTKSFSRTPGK
Procedure: as §1

hNPR1-mFc:hBNP complex [3] = target: T3, hNPR1-mFc:hBNP complex (human, UniProt P16860 103-134); assay: SPR, mAb captured, 37C
T3 construct: also called human NPR1 complexed to BNP
Procedure: as §1

[4] = target: T4, hNPR1-mFc:hANP or hNPR1-hFc:hANP complex (human, UniProt P01160 124-151); assay: SPR, mAb captured, 37C
T4 construct: also called human NPR1 complexed to ANP
Procedure: as §1

mfNPR1-mFc:hANP complex [5] = target: T1, mfNPR1-mFc:hANP complex; assay: SPR, mAb captured, 25C
Procedure: as §1

mfNPR1-mFc [6] = target: T2, mfNPR1-mFc; assay: SPR, mAb captured, 25C
Procedure: as §1

hNPR1-mFc:hBNP complex [7] = target: T3, hNPR1-mFc:hBNP complex; assay: SPR, mAb captured, 25C
Procedure: as §1

mfNPR1-mFc:hBNP complex = target: T5, mfNPR1-mFc:hBNP complex (monkey; human, UniProt P16860 103-134); assay: SPR, mAb captured, 25C
T5 construct: also called monkey NPR1 complexed to BNP
Procedure: as §1

[8] = target: T4, hNPR1-mFc:hANP or hNPR1-hFc:hANP complex; assay: SPR, mAb captured, 25C
Procedure: as §1

B1: mAb25497 (antibody, human IgG4, V domains shown)
VH: QVQLVQSGAEVKEPGASVKVSCKASGYTFTDYYIHWVRQAPGQGLEWMGWINLNSGGKNHAQKFQGRVTVTSDTSINTAYIELGRLRGDDTAVYYCSRGGGSHYYYYYHGMDVWGQGTTVTVSS
VL: DIQMTQSPSSLSASVGDRITITCRASHSIDSYLNWYQQKPGKAPKLLIYPASTLQSGVPSRFSGSGSGTDFTLTISSLQPEDSAIYYCQQSYSTPLTFGGGTKVEIK
mfNPR1-mFc:hANP complex [1]
  100 nM Ag Bound (RU): 102 RU
  Kd: 2.6 nM
  koff: 0.000152 s⁻¹
  kon: 58400 M⁻¹ s⁻¹
  t½: 1.27 h
mfNPR1-mFc [2]
  100 nM Ag Bound (RU): 79 RU
  Kd: 5.2 nM
  koff: 0.000221 s⁻¹
  kon: 42500 M⁻¹ s⁻¹
  t½: 0.872 h
hNPR1-mFc:hBNP complex [3]
  100 nM Ag Bound (RU): 59 RU
  Kd: 2.35 nM
  koff: 0.000116 s⁻¹
  kon: 49200 M⁻¹ s⁻¹
  t½: 1.66 h
[4]
  100 nM Ag Bound (RU): 60 RU
  Kd: 2.09 nM
  koff: 0.000102 s⁻¹
  kon: 48500 M⁻¹ s⁻¹
  t½: 1.9 h
mfNPR1-mFc:hANP complex [5]
  100 nM Ag Bound (RU): 95 RU
  Kd: 0.24 nM
  koff: 3.75e-05 s⁻¹
  kon: 156000 M⁻¹ s⁻¹
  t½: 5.13 h
mfNPR1-mFc [6]
  100 nM Ag Bound (RU): 76 RU
  Kd: 0.337 nM
  koff: 5.79e-05 s⁻¹
  kon: 172000 M⁻¹ s⁻¹
  t½: 3.32 h
hNPR1-mFc:hBNP complex [7]
  100 nM Ag Bound (RU): 59 RU
  Kd: 0.358 nM
  koff: 5.49e-05 s⁻¹
  kon: 153000 M⁻¹ s⁻¹
  t½: 3.51 h
mfNPR1-mFc:hBNP complex
  100 nM Ag Bound (RU): 93 RU
  Kd: 0.32 nM
  koff: 4.47e-05 s⁻¹
  kon: 140000 M⁻¹ s⁻¹
  t½: 4.31 h
[8]
  100 nM Ag Bound (RU): 59 RU
  Kd: 0.279 nM
  koff: 4.56e-05 s⁻¹
  kon: 163000 M⁻¹ s⁻¹
  t½: 4.22 h

B2: mAb25491 (antibody, human IgG4, V domains shown)
VH: QVQLVQSGAEVMKPGASVKVSCKASGYTFTGYYIHWVRQAPGQGLEWMGWITPNSGATNYAQKFQGRVTLTRDTSISTAYMELTRLKSDDTAVYYCARGGQLEFFYYYYGMDVWGQGTTVTVSS
VL: DIQMTQSPSSLSASAGDRVTITCRASQSIDSYLNWYQQKPGKAPKLLISATSGFQSGVPSRFSGSGSGTDFTLTISSLQPEDFGTYYCQQSYTTPITFGQGTRLEIK
mfNPR1-mFc:hANP complex [1]
  100 nM Ag Bound (RU): 148 RU
  Kd: 1.49 nM
  koff: 0.000106 s⁻¹
  kon: 71000 M⁻¹ s⁻¹
  t½: 1.82 h
mfNPR1-mFc [2]
  100 nM Ag Bound (RU): 114 RU
  Kd: 3.49 nM
  koff: 0.000164 s⁻¹
  kon: 47000 M⁻¹ s⁻¹
  t½: 1.17 h
hNPR1-mFc:hBNP complex [3]
  100 nM Ag Bound (RU): 96 RU
  Kd: 2.45 nM
  koff: 0.000134 s⁻¹
  kon: 54700 M⁻¹ s⁻¹
  t½: 1.44 h
[4]
  100 nM Ag Bound (RU): 96 RU
  Kd: 1.95 nM
  koff: 0.000111 s⁻¹
  kon: 56900 M⁻¹ s⁻¹
  t½: 1.73 h
mfNPR1-mFc:hANP complex [5]
  100 nM Ag Bound (RU): 111 RU
  Kd: 0.757 nM
  koff: 4.55e-05 s⁻¹
  kon: 60100 M⁻¹ s⁻¹
  t½: 4.23 h
mfNPR1-mFc [6]
  100 nM Ag Bound (RU): 81 RU
  Kd: 1.4 nM
  koff: 7.54e-05 s⁻¹
  kon: 54000 M⁻¹ s⁻¹
  t½: 2.55 h
hNPR1-mFc:hBNP complex [7]
  100 nM Ag Bound (RU): 72 RU
  Kd: 0.908 nM
  koff: 4.96e-05 s⁻¹
  kon: 54600 M⁻¹ s⁻¹
  t½: 3.88 h
mfNPR1-mFc:hBNP complex
  100 nM Ag Bound (RU): 110 RU
  Kd: 0.632 nM
  koff: 3.71e-05 s⁻¹
  kon: 58600 M⁻¹ s⁻¹
  t½: 5.19 h
[8]
  100 nM Ag Bound (RU): 71 RU
  Kd: 0.794 nM
  koff: 4.15e-05 s⁻¹
  kon: 52200 M⁻¹ s⁻¹
  t½: 4.64 h
